For data set [1], the target named is T1, Yap3 (Saccharomyces cerevisiae) (UniProt P38749).
T1 sequence: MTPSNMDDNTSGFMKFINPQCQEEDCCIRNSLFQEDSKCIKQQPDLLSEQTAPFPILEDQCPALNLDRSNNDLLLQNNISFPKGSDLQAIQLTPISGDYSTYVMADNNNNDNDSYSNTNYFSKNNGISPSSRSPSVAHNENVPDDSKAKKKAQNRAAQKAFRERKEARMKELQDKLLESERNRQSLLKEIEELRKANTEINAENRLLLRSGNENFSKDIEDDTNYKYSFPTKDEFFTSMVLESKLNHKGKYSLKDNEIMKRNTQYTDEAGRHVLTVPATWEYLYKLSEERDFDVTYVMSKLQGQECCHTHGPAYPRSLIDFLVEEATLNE
As to conditions: 100 nM.

Data set [2] has as its target T2, Cin5 (Saccharomyces cerevisiae) (UniProt P40917).
T2 sequence: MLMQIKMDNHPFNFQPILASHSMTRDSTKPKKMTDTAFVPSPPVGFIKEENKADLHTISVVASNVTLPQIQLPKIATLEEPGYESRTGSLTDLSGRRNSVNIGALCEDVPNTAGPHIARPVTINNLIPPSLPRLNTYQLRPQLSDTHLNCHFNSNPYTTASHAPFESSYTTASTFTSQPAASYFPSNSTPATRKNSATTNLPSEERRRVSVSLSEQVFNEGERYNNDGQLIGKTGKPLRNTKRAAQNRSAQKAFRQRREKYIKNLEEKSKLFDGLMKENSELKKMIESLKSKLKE
As to conditions: 100 nM.

Data set [3] deals with T3, Sut1 (Saccharomyces cerevisiae) (UniProt P53032).
T3 sequence: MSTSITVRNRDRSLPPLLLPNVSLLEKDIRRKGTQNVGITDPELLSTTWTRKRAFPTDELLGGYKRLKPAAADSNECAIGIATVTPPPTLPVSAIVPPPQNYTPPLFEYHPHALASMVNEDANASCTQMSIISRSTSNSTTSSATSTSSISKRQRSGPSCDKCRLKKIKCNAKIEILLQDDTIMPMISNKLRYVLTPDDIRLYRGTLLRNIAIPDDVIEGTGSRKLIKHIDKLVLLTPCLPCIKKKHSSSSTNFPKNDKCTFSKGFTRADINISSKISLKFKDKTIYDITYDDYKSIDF
As to conditions: 200 nM.

In data set [4] the target is T4, Yer184c (Saccharomyces cerevisiae) (UniProt P39961).
T4 sequence: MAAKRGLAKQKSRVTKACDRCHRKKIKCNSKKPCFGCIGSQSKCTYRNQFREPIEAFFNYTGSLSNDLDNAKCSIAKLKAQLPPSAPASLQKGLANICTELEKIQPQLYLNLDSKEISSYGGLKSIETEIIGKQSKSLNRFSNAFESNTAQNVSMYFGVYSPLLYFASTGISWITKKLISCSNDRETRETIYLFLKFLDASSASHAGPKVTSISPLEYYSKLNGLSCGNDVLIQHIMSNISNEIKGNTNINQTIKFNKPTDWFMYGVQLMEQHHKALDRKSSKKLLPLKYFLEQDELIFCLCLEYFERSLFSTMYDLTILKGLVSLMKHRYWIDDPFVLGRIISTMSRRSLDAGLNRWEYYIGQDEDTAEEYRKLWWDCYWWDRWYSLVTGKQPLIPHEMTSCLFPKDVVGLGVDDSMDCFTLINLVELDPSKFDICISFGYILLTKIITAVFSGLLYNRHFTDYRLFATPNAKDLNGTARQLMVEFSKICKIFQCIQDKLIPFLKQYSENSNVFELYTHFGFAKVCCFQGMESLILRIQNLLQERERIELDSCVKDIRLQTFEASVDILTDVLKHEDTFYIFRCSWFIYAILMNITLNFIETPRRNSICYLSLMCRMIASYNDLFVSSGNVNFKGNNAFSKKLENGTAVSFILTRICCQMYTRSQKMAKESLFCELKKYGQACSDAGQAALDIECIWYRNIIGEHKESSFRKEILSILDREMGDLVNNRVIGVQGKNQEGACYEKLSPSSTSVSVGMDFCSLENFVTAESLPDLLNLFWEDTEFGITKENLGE
As to conditions: 100 nM.

Data set [5] addresses T5, Cad1 (Saccharomyces cerevisiae) (UniProt P24813).
T5 sequence: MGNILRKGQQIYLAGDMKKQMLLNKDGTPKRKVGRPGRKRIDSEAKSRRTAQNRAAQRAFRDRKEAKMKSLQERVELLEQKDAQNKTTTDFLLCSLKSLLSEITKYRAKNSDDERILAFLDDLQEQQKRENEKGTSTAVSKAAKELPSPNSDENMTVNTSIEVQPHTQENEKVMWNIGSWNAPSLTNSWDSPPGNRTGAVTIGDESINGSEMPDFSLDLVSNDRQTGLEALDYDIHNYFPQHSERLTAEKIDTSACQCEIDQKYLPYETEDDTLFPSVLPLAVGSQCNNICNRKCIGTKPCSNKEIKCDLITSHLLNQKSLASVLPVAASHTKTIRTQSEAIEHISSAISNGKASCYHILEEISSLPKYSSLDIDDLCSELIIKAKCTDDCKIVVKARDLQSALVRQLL
As to conditions: 100 nM.

Data set [6] concerns the target T6, Sko1 (Saccharomyces cerevisiae) (UniProt Q02100).
T6 sequence: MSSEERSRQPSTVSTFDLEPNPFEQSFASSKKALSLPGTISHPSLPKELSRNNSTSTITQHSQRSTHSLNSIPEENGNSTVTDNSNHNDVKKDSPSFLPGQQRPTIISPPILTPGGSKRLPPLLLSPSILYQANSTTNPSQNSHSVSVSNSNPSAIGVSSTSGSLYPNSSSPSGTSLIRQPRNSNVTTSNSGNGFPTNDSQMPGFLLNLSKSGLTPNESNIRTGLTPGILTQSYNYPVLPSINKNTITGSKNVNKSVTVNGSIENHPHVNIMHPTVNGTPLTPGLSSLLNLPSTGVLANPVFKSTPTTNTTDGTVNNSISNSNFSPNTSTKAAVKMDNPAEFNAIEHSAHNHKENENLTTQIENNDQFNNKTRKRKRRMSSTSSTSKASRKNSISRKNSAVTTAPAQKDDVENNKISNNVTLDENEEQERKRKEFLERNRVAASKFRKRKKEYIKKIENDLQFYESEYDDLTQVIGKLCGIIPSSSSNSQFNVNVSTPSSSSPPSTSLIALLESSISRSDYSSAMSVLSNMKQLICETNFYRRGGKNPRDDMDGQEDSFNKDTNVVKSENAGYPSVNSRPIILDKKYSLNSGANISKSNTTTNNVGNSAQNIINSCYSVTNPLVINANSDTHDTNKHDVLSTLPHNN
As to conditions: 200 nM.

Data set [7] deals with T7, Pdr3 (Saccharomyces cerevisiae) (UniProt P33200).
T7 sequence: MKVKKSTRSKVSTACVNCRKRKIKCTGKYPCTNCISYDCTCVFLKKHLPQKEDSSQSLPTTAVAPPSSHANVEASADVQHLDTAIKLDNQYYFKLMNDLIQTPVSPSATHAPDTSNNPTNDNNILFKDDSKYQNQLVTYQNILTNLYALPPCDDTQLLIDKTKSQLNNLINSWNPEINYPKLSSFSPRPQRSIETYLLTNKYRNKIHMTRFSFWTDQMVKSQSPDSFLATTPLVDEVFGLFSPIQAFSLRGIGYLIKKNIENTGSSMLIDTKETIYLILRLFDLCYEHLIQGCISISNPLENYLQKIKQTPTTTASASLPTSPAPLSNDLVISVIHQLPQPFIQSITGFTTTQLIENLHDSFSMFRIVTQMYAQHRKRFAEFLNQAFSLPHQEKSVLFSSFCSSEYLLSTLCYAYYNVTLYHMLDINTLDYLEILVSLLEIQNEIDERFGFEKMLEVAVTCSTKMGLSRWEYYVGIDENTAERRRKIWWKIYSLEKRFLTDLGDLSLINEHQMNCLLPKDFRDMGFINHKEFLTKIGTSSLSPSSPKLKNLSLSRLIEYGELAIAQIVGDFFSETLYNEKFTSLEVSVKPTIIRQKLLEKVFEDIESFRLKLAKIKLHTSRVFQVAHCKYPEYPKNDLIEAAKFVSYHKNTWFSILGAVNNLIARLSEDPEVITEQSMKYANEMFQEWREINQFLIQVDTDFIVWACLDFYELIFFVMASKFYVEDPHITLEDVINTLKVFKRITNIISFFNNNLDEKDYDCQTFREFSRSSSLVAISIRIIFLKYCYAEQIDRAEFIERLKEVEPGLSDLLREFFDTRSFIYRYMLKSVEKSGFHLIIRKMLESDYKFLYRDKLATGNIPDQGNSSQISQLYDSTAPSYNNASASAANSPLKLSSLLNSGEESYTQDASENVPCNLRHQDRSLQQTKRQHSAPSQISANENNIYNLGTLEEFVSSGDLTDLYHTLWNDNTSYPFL
As to conditions: 200 nM.

Consider “ACGTAATC (double strand) [8-mer ACGTAATC]”, for which the binding signal (PBM E-score (-0.5 to 0.5)) in data set [1] amounted to 0.462; in data set [2] it was 0.496.
With “ACTCCGGA (double strand) [8-mer ACTCCGGA]”, the figures for the binding signal (PBM E-score (-0.5 to 0.5)) in data set [3] and in data set [4] were 0.495 and 0.459, respectively.
Sequence “ATTAATAA (double strand) [8-mer ATTAATAA]” returned a binding signal (PBM E-score (-0.5 to 0.5)) in data set [5] of 0.46.
Regarding “ATTACGTA (double strand) [8-mer ATTACGTA]”, the binding signal (PBM E-score (-0.5 to 0.5)) in data set [6] came to 0.497; in data set [1] it was 0.478; in data set [2], 0.49.
Consider “ATTACTAA (double strand) [8-mer ATTACTAA]”, for which the binding signal (PBM E-score (-0.5 to 0.5)) in data set [5] was found to be 0.492; in data set [1], 0.479.
The like results for “ATTAGTAA (double strand) [8-mer ATTAGTAA]” were, in that order, 0.49 and 0.487.
Take “ATTAGTCA (double strand) [8-mer ATTAGTCA]”: the binding signal (PBM E-score (-0.5 to 0.5)) in data set [5] came to 0.491.
Same read-out and setting: the value for “ATTTGTCA (double strand) [8-mer ATTTGTCA]” was 0.465.
With “CCGGAAAA (double strand) [8-mer CCGGAAAA]”, in data set [4], the binding signal (PBM E-score (-0.5 to 0.5)) amounted to 0.46.
Same read-out and setting: the value for “CCGGCCGG (double strand) [8-mer CCGGCCGG]” was 0.486; that for “CGCCGGCG (double strand) [8-mer CGCCGGCG]” was 0.485.
Consider “CTGACTAA (double strand) [8-mer CTGACTAA]”, for which the binding signal (PBM E-score (-0.5 to 0.5)) in data set [5] is 0.488.
Still for that read-out and setting: next, “CTTACTAA (double strand) [8-mer CTTACTAA]”: 0.484; “CTTAGTAA (double strand) [8-mer CTTAGTAA]”: 0.471.
For “GCCGCGGC (double strand) [8-mer GCCGCGGC]”, the binding signal (PBM E-score (-0.5 to 0.5)) in data set [4] was found to be 0.475.
On the same count and under the same terms, the value for “GTCCGGAC (double strand) [8-mer GTCCGGAC]” was 0.464; that for “TATCCGGA (double strand) [8-mer TATCCGGA]” was 0.454.
With “TCCGCGGA (double strand) [8-mer TCCGCGGA]”, the binding signal (PBM E-score (-0.5 to 0.5)) turned out to be 0.5 in data set [7] and 0.481 in data set [4].
In turn, “TCGGCCGA (double strand) [8-mer TCGGCCGA]” gave a binding signal (PBM E-score (-0.5 to 0.5)) in data set [4] of 0.473.
In the case of “TTACGTAA (double strand) [8-mer TTACGTAA]”, the binding signal (PBM E-score (-0.5 to 0.5)) in data set [5] was determined as 0.48; in data set [6], 0.496; in data set [1] it was 0.496; in data set [2] it was 0.497.
“TTCCGGAA (double strand) [8-mer TTCCGGAA]”: the binding signal (PBM E-score (-0.5 to 0.5)) in data set [7] stood at 0.492; in data set [4], 0.467.
